Results taken from PMC314469, “Protein Interaction Networks by Proteome Peptide Scanning” (PLoS Biology, 2004).

Assays:
Assay in all cases: SPOT array
[1] = target: T1, Abp1 SH3 (ABP1_YEAST), P15891
T1 chain: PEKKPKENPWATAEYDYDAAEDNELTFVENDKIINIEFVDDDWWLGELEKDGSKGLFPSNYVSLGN

[2] = target: T2, Boi1 SH3 (BOI1_YEAST), P38041
T2 chain: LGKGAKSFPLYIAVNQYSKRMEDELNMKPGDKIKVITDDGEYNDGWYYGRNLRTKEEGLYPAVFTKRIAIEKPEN

[3] = target: T3, Rvs167 SH3 (RV167_YEAST), P39743
T3 chain: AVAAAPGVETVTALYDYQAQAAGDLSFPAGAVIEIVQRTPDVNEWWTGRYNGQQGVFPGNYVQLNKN

[4] = target: T4, Boi2 SH3 (BOI2_YEAST), P39969
T4 chain: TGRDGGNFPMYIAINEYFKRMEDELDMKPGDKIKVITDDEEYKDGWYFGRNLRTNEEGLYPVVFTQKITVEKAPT

[5] = target: T5, Yhr016c SH3 (YSC84_YEAST), P32793
T5 chain: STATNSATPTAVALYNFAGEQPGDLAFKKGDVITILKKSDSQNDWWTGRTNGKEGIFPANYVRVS

[6] = target: T6, Yfr024 SH3 (LSB3_YEAST), P43603
T6 chain: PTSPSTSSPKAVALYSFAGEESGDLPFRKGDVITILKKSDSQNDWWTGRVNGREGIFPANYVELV

Row | Binder | normalised SPOT signal, Boehringer light units (BLU); mean over the file's lines of this peptide [1] | normalised SPOT signal, Boehringer light units (BLU); mean over the file's lines of this peptide [2] | normalised SPOT signal, Boehringer light units (BLU); mean over the file's lines of this peptide [3] | normalised SPOT signal, Boehringer light units (BLU); mean over the file's lines of this peptide [4] | normalised SPOT signal, Boehringer light units (BLU); mean over the file's lines of this peptide [5] | normalised SPOT signal, Boehringer light units (BLU); mean over the file's lines of this peptide [6]
1 | NIQTIAMPLTTKP [YIL053W 16-28] | 111 | – | – | – | – | –
2 | NKLLPPHPFADKP [YGL143C 142-154] | 69.9 | – | – | – | – | –
3 | NKPGWVVYPPPPKP [YML035C 220-233] | 180 | – | – | – | – | –
4 | NKRDKKKKKYPRKP [YDR485C 329-342] | 0 | – | – | – | – | –
5 | NLLLLDADNFPIKP [YBR015C 261-274] | 169 | – | – | – | – | –
6 | NEGPEYPTKIEKNQ [YKL101W 777-790] | – | 125 | 20.8 | 33.6 | 109 | 127
7 | MVLPPAPPKNSDPS [YFL036W 764-777] | – | 54 | 79.6 | 34.7 | 273 | 892
8 | MVTPSKPPKKSVGF [YCL063W 147-160] | – | 149 | 114 | 85.1 | 361 | 2650
9 | NDDPVIPYKLSKDT [YHR164C 1037-1050] | – | 92.9 | 54.5 | 44.3 | 233 | 198
10 | NISIDYKPSRNKP [YKL126W 329-341] | 181 | – | – | – | – | –
11 | MTDPDAPSRTEHKW [YLR179C 77-90] | – | 124 | 23 | 34.4 | 239 | 122
12 | NINPKQPPKTSGEK [YMR179W 373-386] | – | 24.7 | 9.7 | 5.7 | 225 | 207
13 | NLRGRIEFQPPLKP [YMR020W 267-280] | 235 | – | – | – | – | –
14 | NITVDYKPSKNKP [YMR104C 326-338] | 108 | – | – | – | – | –
15 | MVTPREPKKRTTRK [YPR052C 1-14] | – | 187 | 163 | 88.4 | 768 | 620
16 | NAKPPLPIKAVTRP [YJL201W 440-453] | – | 2020 | 32.9 | 48.5 | 288 | 1870

Row | Binder | normalised SPOT signal, Boehringer light units (BLU); mean over the file's lines of this peptide [1] | normalised SPOT signal, Boehringer light units (BLU); mean over the file's lines of this peptide [2] | normalised SPOT signal, Boehringer light units (BLU); mean over the file's lines of this peptide [3] | normalised SPOT signal, Boehringer light units (BLU); mean over the file's lines of this peptide [4] | normalised SPOT signal, Boehringer light units (BLU); mean over the file's lines of this peptide [5] | normalised SPOT signal, Boehringer light units (BLU); mean over the file's lines of this peptide [6]
17 | NEYPSKPPKVKFPA [YDL064W 66-79] | – | 66.8 | 60.2 | 54.4 | 54.8 | 415
18 | NKTFFLKPPIGRP [YBR182C 407-419] | 7480 | – | – | – | – | –
19 | NAPPYVPQRSKQPD [YBR114W 165-178] | – | 558 | 14300 | 200 | 8020 | 11800
20 | NLGDIVTPTIQRP [YPL070W 456-468] | 45.9 | – | – | – | – | –
21 | NLSVRSKRLFPVRP [YAL040C 532-545] | 326 | – | – | – | – | –
22 | NHIPPFPLRFSFAQ [YDR421W 532-545] | – | 119 | 106 | 35.5 | 2580 | 6920
23 | NEVPTTPVRLILGQ [YOR195W 2-15] | – | 76.1 | 48.6 | 34.2 | 2090 | 2530
24 | NANPFLPNKHPVTQ [YGR076C 38-51] | – | 28.5 | 81.9 | 54 | 352 | 1430
25 | NLKIDSAPAYLKP [YKR011C 56-68] | 112 | – | – | – | – | –
26 | NLANGLMDTMPNKP [YBL084C 527-540] | 33.5 | – | – | – | – | –
27 | NKIKETLPREKKP [YMR255W 67-79] | 179 | – | – | – | – | –
28 | NKSKFTDMLDPEKP [YBR033W 382-395] | 160 | – | – | – | – | –
29 | MVRPAPPRRADPEG [Q0297 11-24] | – | 3640 | 14400 | 1310 | 7790 | 18800
30 | NIPPNSPGKLQLNT [YNR017W 123-136] | – | 37.5 | 0 | 93.6 | 77.6 | 84.4
31 | NKIETLDPALIRP [YDL007W 329-341] | 270 | – | – | – | – | –
